# Data as given in patent US20060025337.
# T1: p53-382 acetylated peptide substrate ('Fluor de Lys-SIRT1', BIOMOL) (not fully specified)
# T1 chain: RHKK
# B1: recombinant human SIRT1 (His6-tagged) (protein)
# chain: MADEAALALQPGGSPSAAGADREAASSPAGEPLRKRPRRDGPGLERSPGEPGGAAPEREVPAAARGCPGAAAAALWREAEAEAAAAGGEQEAQATAAAGEGDNGPGLQGPSREPPLADNLYDEDDDDEGEEEEEAAAAAIGYRDNLLFGDEIITNGFHSCESDEEDRASHASSSDWTPRPRIGPYTFVQQHLMIGTDPRTILKDLLPETIPPPELDDMTLWQIVINILSEPPKRKKRKDINTIEDAVKLLQECKKIIVLTGAGVSVSCGIPDFRSRDGIYARLAVDFPDLPDPQAMFDIEYFRKDPRPFFKFAKEIYPGQFQPSLCHKFIALSDKEGKLLRNYTQNIDTLEQVAGIQRIIQCHGSFATASCLICKYKVDCEAVRGDIFNQVVPRCPRCPADEPLAIMKPEIVFFGENLPEQFHRAMKYDKDEVDLLIVIGSSLKVRPVALIPSSIPHEVPQILINREPLPHLHFDVELLGDCDVIINELCHRLGGEYAKLCCNPVKLSEITEKPPRTQKELAYLSELPPTPLHVSEDSSSPERTSPPDSSVIVTLLDQAAKSNDDLDVSESKGCMEEKPQEVQTSRNVESIAEQMENPDLKNVGSSTGEKNERTSVAGTVRKCWPNRVAKEQISRRLDGNQYLFLPPNRYIFHGAEVYSDSEDDVLSSSSCGSNSDSGTCQSPSLEEPMEDESEIEEFYNGLEDEPDVPERAGGAGFGTDGDDQEAINEAISVKQEVTDMNYPSNKS
# Target: T1, p53-382 acetylated peptide substrate …
protein,measurement,value
B1,"Km for p53-382 acetylated peptide (SIRT1 initial rate at 3 mM NAD+, control, no resveratrol)","Km(control, ν)=64 µM"
same,"Km for p53-382 acetylated peptide (SIRT1 initial rate at 3 mM NAD+, with 100 µM resveratrol)","Km (+resveratrol, Δ)=1.8 µM"
same,fold decrease of the acetylated peptide Km caused by 100 µM resveratrol,"Its effect on the acetylated peptide Km was particularly striking, amounting to a 35-fold decrease"
